Experimental data as given in publication PMC2119692.

Assays:
[1] = target: calmodulin targets in the leading lamellae (region of transverse fibers) of Swiss 3T3 fibroblasts during wound healing; assay: steady state fluorescence anisotropy imaging microscopy
[2] = target: target proteins of calmodulin in serum-deprived and serum-stimulated Swiss 3T3 fibroblasts; assay: as above

- maximum fraction bound (fB) [1]: 50%
- fraction bound (fB) [2]: < 10%
- maximum fraction bound (fB) [2]: 95%
Substance: FITC-calmodulin (from UniProt P62157 1-149) (natural protein)
